The values below come from patent US20120165204A1 (UNIVERSITY OF NORTH CAROLINA AT CHAPEL HILL, published 2012).

The experiment concerns the target T1, 546-4 T17N (LOV2 carries non-covalent FMN; the Rac1 C-terminal CAAX box may be prenylated and trimmed in cells).
T1 construct: only the lane label names it
The experiment can be described thus: pull-down (CoIP) with FLAG-tagged PAK1 co-expressed in HEK 293 cells, FLAG/M2-agarose, in the dark; Western blot.

Description: The cells were lysed in 50 mM Tris pH 7.5, 150 mM NaCl, and 1% Triton X-100 (lysis buffer) with addition of EDTA-free protease inhibitor cocktail (Roche). After brief centrifugation, the supernatants were incubated with FLAG/M2-agarose (Sigma) followed by washes with lysis buffer, and elution with lysis buffer containing 200 μg/ml 3× FLAG peptide (Sigma). All procedures were done at 4° C. under red light, facilitated using Handee spin columns (Pierce).

B1: FLAG-tagged PAK1 (enzyme, UniProt Q13153 1-545, looked up)
chain: MSNNGLDIQDKPPAPPMRNTSTMIGAGSKDAGTLNHGSKPLPPNPEEKKKKDRFYRSILPGDKTNKKKEKERPEISLPSDFEHTIHVGFDAVTGEFTGMPEQWARLLQTSNITKSEQKKNPQAVLDVLEFYNSKKTSNSQKYMSFTDKSAEDYNSSNALNVKAVSETPAVPPVSEDEDDDDDDATPPPVIAPRPEHTKSVYTRSVIEPLPVTPTRDVATSPISPTENNTTPPDALTRNTEKQKKKPKMSDEEILEKLRSIVSVGDPKKKYTRFEKIGQGASGTVYTAMDVATGQEVAIKQMNLQQQPKKELIINEILVMRENKNPNIVNYLDSYLVGDELWVVMEYLAGGSLTDVVTETCMDEGQIAAVCRECLQALEFLHSNQVIHRDIKSDNILLGMDGSVKLTDFGFCAQITPEQSKRSTMVGTPYWMAPEVVTRKAYGPKVDIWSLGIMAIEMIEGEPPYLNENPLRALYLIATNGTPELQNPEKLSAIFRDFLNRCLEMDVEKRGSAKELLQHQFLKIAKPLSSLTPLIAAAKEATKNNH
notes: Bait of the pull-down assays (FLAG/M2-agarose); not shown: FLAG tag
Consider B1, for which the binding result is recorded as “no binding”.
